B1: His-tagged full-length 14-3-3σ (natural protein)
chain: MERASLIQKAKLAEQAERYEDMAAFMKGAVEKGEELSCEERNLLSVAYKNVVGGQRAAWRVLSSIEQKSNEEGSEEKGPEVREYREKVETELQGVCDTVLGLLDSHLIKEAGDAESRVFYLKMKGDYYRYLAEVATGDDKKRIIDSARSAYQEAMDISKKEMPPTNPIRLGLALNFSVFHYEIANSPEEAISLAKTTFDEAMADLHTLSEDSYKDSTLIMQLLRDNLTLWTADNAGEEGGEAPQEPQS
modifications: in the coacervate experiments labelled with Cy5 or DyLight 405 (NHS ester, aspecific)

Assays:
BiExoS [change] peptide = test: fluorescence polarisation
T14-3-3 = test: Fluorescence anisotropy assay, titration of T14-3-3 to labeled peptides; assay type: binding; conditions: Supplementary Table 1; unphosphorylated peptide, cf. Supplementary Fig. 7
Procedure: 14-3-3 was titrated in a 2-fold dilution series to 10 nM of fluorescently labeled peptide in coacervate buffer (20 mM HEPES, 100 mM KCl, pH 7.5) supplemented with 0.1% (v/v) of Tween 20 and 1 mg/mL of bovine serum albumin (BSA) to prevent aspecific hydrophobic interactions. Dilution series were prepared in low volume, non-binding polystyrene 384-well plates (Corning 4514 Black Round Bottom 384-well plates). Measurements were performed directly after plate preparation using a Tecan Spark plate reader at room temperature. The following settings were used: excitation 485 ± 20 nm; emission: 535 ± 25 nm; mirror: Dichroic 510; number of flashes: 30; integration time: 40 µs; settle time: 1 ms; gain: optimal; and Z-position: calculated from well. Wells containing only the labeled peptide were used to set as G-factor at 35 mAU. All data were analyzed using GraphPad Prism (version 10.0.3) and fitted using a four-parameter logistic model (4PL) to determine binding affinities (KD). All results are based on triplicates, with the mean and standard error determined by GraphPad.

14-3-3γ = target: T1, 14-3-3γ (Homo sapiens, UniProt P61981); test: Fluorescence anisotropy assay, titration of 14-3-3γ to labeled peptide; assay type: binding; conditions: ratio of KD values from fluorescence anisotropy
T1 construct: His-tagged full-length 14-3-3σ and 14-3-3γ were kindly provided by
T1 sequence (P61981 1-247): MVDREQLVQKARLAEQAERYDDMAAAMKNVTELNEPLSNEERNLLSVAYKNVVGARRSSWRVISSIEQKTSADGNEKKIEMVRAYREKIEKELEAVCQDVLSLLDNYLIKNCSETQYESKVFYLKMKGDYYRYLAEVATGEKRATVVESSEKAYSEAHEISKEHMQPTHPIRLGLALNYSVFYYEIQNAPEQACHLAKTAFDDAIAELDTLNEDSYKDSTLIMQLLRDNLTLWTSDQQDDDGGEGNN

Molecule | Kd (BiExoS [change] peptide) [µM] | also measured
His-tagged full-length 14-3-3γ (from UniProt P61981 1-247) (natural protein) | 0.059 | 
FITC-Ahx-QHRYSTPHAFTFNTSSPSSEGSLSQRQRSTSTPNVH-Ac [c-Raf S233/S259, unphosphorylated FITC-labeled c-Raf S233/S259 peptide] |  | Binding mode to 14-3-3 (T14-3-3): No binding
CC(C)C[C@H](NC(=O)[C@H](CO)NC(=O)CNC(=O)[C@H](CCC(=O)O)NC(=O)[C@H](CO)NC(=O)[C@H](CO)NC(=O)[C@@H]1CCCN1C(=O)[C@H](CO)NC(=O)[C@H](CO)NC(=O)[C@@H](NC(=O)[C@H](CC(N)=O)NC(=O)[C@H](Cc1ccccc1)NC(=O)[C@@H](NC(=O)[C@H](Cc1ccccc1)NC(=O)[C@H](C)NC(=O)[C@H](Cc1c[nH]cn1)NC(=O)[C@@H]1CCCN1C(=O)[C@@H](NC(=O)[C@H](COP(=O)(O)O)NC(=O)[C@H](Cc1ccc(O)cc1)NC(=O)[C@H](CCCNC(=N)N)NC(=O)[C@H](Cc1c[nH]cn1)NC(=O)[C@H](CCC(N)=O)NC(=O)CCCCCNC(=S)Nc1ccc2c(c1)C(=O)OC21c2ccc(O)cc2Oc2cc(O)ccc21)[C@@H](C)O)[C@@H](C)O)[C@@H](C)O)C(=O)N[C@@H](CO)C(=O)N[C@@H](CCC(N)=O)C(=O)N[C@@H](CCCNC(=N)N)C(=O)N[C@@H](CCC(N)=O)C(=O)N[C@@H](CCCNC(=N)N)C(=O)N[C@@H](CO)C(=O)N[C@H](C(=O)N[C@@H](COP(=O)(O)O)C(=O)N[C@H](C(=O)N1CCC[C@H]1C(=O)N[C@@H](CC(N)=O)C(=O)N[C@H](C(=O)N[C@@H](Cc1c[nH]cn1)C(N)=O)C(C)C)[C@@H](C)O)[C@@H](C)O [FITC-c-Raf pS] |  | difference in bulk affinity of the peptide for the two isoforms (14-3-3σ vs 14-3-3γ) (14-3-3γ): 40 fold
B1 | 23 | 
